The text below walks through data of article doi:10.1101/303123 (bioRxiv, 2018).

The target of assay [1] is T1, XcpX (29-313), soluble form of the minor pseudopilin XcpX (P. aeruginosa, UniProt Q00518 29-313).
T1 sequence (looked up): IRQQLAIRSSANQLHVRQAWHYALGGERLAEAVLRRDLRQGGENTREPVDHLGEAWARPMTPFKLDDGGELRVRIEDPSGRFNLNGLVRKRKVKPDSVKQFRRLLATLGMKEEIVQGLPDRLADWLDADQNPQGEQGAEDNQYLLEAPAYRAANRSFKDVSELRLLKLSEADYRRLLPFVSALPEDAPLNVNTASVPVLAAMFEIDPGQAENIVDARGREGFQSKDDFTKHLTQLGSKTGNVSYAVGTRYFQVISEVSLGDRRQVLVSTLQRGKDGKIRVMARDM
Briefly: crystal structure.

For assay [2], the target named is T2, XcpVW binary complex (XcpV (28-129) with XcpW (28-203)) (P. aeruginosa, UniProt Q00516 28-129; Q00517 28-203).
T2 sequence (looked up) 1: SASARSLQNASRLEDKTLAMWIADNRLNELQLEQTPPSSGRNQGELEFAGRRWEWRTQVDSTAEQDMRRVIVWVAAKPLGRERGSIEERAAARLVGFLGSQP
T2 sequence (looked up) 2: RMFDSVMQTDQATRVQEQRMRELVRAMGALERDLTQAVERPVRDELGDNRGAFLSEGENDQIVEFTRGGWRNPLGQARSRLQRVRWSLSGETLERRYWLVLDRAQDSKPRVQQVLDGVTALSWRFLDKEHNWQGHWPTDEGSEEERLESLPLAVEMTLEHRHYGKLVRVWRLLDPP
Briefly: SEC + AUC.

B1: XcpV (28-129), soluble form of the minor pseudopilin XcpV (domain or fragment, P. aeruginosa, UniProt Q00516 28-129, looked up)
chain: T2 sequence (looked up) 1
Take B1: the binding result in assay [1] is “binds”.

B2: XcpU (29-172), soluble form of the minor pseudopilin XcpU (domain or fragment, P. aeruginosa, UniProt Q00515 29-172, looked up)
chain: STGFASTSRELDSEAERLAGLIGVLTDEAVLDNREYGLRLERDAYQVLRYDEAKARWLPVARDSHRLPEWAELTFELDGQPLVLAGSKGEKEQKKGTDQPQLLILSSGELSPFRLRLAERGPEGRALSLSSDGFRLPRVEVARR
For the molecule B2, the binding result in assay [2] was “binds”.
